This is an account of results in article PMC2710387.

In the series the target is SP1 (recombinant, purified, Promega) (UniProt P08047 2-785). As to the kind of experiment: EMSA.
SP1 (recombinant, purified, Promega), sequence (P08047 2-785): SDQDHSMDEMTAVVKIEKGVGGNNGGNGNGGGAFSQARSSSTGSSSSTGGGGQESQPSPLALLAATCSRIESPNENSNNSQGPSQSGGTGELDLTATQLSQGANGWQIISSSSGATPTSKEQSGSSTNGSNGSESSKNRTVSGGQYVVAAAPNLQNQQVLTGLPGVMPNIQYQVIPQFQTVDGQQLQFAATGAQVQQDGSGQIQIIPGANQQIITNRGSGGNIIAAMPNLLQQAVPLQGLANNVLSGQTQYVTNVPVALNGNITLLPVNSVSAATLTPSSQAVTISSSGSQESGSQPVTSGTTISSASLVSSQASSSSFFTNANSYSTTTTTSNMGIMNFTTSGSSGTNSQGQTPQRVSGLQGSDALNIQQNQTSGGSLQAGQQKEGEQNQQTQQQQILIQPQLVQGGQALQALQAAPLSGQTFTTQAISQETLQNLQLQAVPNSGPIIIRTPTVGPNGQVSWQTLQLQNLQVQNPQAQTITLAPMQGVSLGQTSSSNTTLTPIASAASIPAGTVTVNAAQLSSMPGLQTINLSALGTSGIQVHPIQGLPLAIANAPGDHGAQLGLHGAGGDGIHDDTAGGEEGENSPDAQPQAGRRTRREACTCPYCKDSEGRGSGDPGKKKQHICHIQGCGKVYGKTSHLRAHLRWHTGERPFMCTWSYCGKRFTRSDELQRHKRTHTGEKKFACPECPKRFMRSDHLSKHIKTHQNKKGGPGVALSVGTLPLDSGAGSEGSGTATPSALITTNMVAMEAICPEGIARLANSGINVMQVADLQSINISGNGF

B1: Sp1 (-346) methylated (Sp1-1 M) (dsDNA)
DNA 1: TCCACCCTCCGCCCCGCGCCGTCC
DNA 2: GGACGGCGCGGGGCGGAGGGTGGA
modifications: 5-methylcytosine (printed mC): strand 1 C10,C15,C17,C20,C24; strand 2 C4,C7,C9,C14
With B1, the binding result is recorded as “no binding”.

B2: Sp1 (-268) methylated (Sp1-2 M) (dsDNA)
DNA 1: TTCTCGTCCCCGCCCCGTCCCGCC
DNA 2: GGCGGGACGGGGCGGGGACGAGAA
modifications: 5-methylcytosine (printed mC): strand 1 C5,C11,C16,C21,C24; strand 2 C3,C8,C13,C19
Consider B2, for which the binding result was “no binding”.

B3: Sp1 (-346) unmethylated (Sp1-1) (dsDNA)
DNA 1: TCCACCCTCCGCCCCGCGCCGTCC
DNA 2: GGACGGCGCGGGGCGGAGGGTGGA
With B3, the binding result is “binds”.

B4: Sp1 (-268) unmethylated (Sp1-2) (dsDNA)
DNA 1: TTCTCGTCCCCGCCCCGTCCCGCC
DNA 2: GGCGGGACGGGGCGGGGACGAGAA
Take B4: the binding result is “binds”.
